Results published in patent publication US20170044238A1 (NATIONAL RESEARCH COUNCIL OF CANADA, published 2017).
Substitutions are numbered along the chain they refer to.

B1: HVHM81S (antibody, V domains shown)
VH: EVQLVQSGGGLVQPGRSLRLSCAASGFTFDDYAMHWVRQAPGKGLEWVCGISGSGASTYYADSVKGRFTCSRDNSKNTLYLQMNSLRAGDTALYYCARQSITGPTGAFDVWGQGTMVTVSS
notes: Cys49/Cys69 (Kabat) mutant of HVHM81; VH single-domain antibody; tag not specified
B2: HVHPC235S (antibody, V domains shown)
VH: QVQLVESGGGLIKPGGSLRLSCAASGFSVISESMTWVRQAPGKGLEWVCAISSSGGSTYYADSVKGRFTCSRDNSKNTVHLQMNSLRAEDTAVYYCAAKKIDGARYDYWGQGTMVTVSS
notes: Cys49/Cys69 (Kabat) mutant of HVHPC235; VH single-domain antibody; tag not specified; also called HVHAmC235S; HVHP235S
B3: HVLHLEM (antibody, V domains shown)
VL: DIQMTQSPSSLSASVGDRVTITCQASQGIEMFLQWYQQKPGKAPKLLCFAASTLQSGVPSRFSCSGSGTDFTLTISNLQPEDFATYYCVQPGVAPPPGTFGHGTKVTVL
notes: Anti-human lysozyme VL single-domain antibody from the HVLP324S library (Cys48/Cys64); not shown: C-terminal His6 tag
B4: HVLHLRN (antibody, V domains shown)
VL: DIQMTQSPSSLSASVGDRVTITCKASQGIRNRLYWYQQKPGKAPKLLCFPASILDSGVPSRFSCSGSGTDFTLTISNLQPEDFATYYCAQQPGLPNSRTFGHGTKVTVL
notes: as for B3
B5: HVLHLNN (antibody, V domains shown)
VL: DIQMTQSPSSLSASVGDRVTITCSASQSINNRLYWYQQKPGKAPKLLCFPASFLFSGVPSRFSCSGSGTDFTLTISNLQPEDFATYYCQQSYSTPRTFGHGTKVTVL
notes: as for B3
B6: HVLHLNE (antibody, V domains shown)
VL: B5 VL with S24D, N31E, F53I, F55T, Q89R, S91P, Y92R, T94G, R96S
notes: as for B3
B7: HVLHLDS (antibody, V domains shown)
VL: B5 VL with S24T, A25V, S28G, N30D, N31S, F53L, F55E
notes: as for B3
B8: HVLHLAQ (antibody, V domains shown)
VL: DIQMTQSPSSLSASVGDRVTITCGASQSIAQRLYWYQQKPGKAPKLLCFPASLLHSGVPSRFSCSGSGTDFTLTISNLQPEDFATYYCAQRASPPRPTFGHGTKVTVL
notes: as for B3
B9: HVLHLQI (antibody, V domains shown)
VL: DIQMTQSPSSLSASVGDRVTITCRASQSIQIMLDWYQQKPGKAPKLLCFGASFLISGVPSRFSCSGSGTDFTLTISNLQPEDFATYYCRQTWTPPAPTFGHGTKVTVL
notes: as for B3
B10: HVLHLYS (antibody, V domains shown)
V domain: DIQMTQSPSSLSASVGDRVTITCQASQSIYSKLYWYQQKPGKAPKLLCFPASLLWSGVPSRFSCSGSGTDFTLTISNLQPEDFATYYCLQNAADPHRTFGHGTKVRL
notes: as for B3
B11: HVHAm302 (antibody, V domains shown)
VH: QVQLVESGGGLIKPGGSLRLSCAASGDTVSDESMTWVRQAPGKGLEWVSAISSSGGSTYYADSVKGRFTISRDNSKNTVYLQMNSLRAEDTAVYYCVTDNRSCQTSLCTSTTRSWGQGTMVTVSS
notes: Human VH single-domain antibody (wild-type), tested alone; monomer peak used for SPR; tag not specified
B12: HVHAm302S (antibody, V domains shown)
VH: B11 VH with S49C, I70C
notes: Cys49/Cys69 (Kabat) mutant of HVHAm302; VH single-domain antibody; tag not specified
B13: HVHB82S (antibody, V domains shown)
VH: QVQLQESGGGLVQPGGSLRLSCAASGFTFSSYAMSWVRQAPGKGLEWVCAISGSGGSTYYADSVKGRFTCSRDNSKNTLYLQMNSLRAEDTAVYYCGTDMEVWGKGTTVTVSS
notes: Cys49/Cys69 (Kabat) mutant of HVHB82; VH single-domain antibody; tag not specified
B14: HVHAm427 (antibody, V domains shown)
VH: QVQLVESGGGLIKPGGSLRLSCAASGVTLSPECMAWVRQAPGKGLEWVSAISSSGGSTYYADSVKGRFTISRDNSKNTVYLQMNSLRAEDTAVYYCVSCEGENAFWGQGTMVTVSS
notes: Human VH single-domain antibody (wild-type), tested alone; tag not specified
B15: HVHAm427S (antibody, V domains shown)
VH: B14 VH with S49C, I70C
notes: Cys49/Cys69 (Kabat) mutant of HVHAm427; VH single-domain antibody; tag not specified
B16: HVHP414S (antibody, V domains shown)
VH: DVQLVQSGGGLVKPGGSLRLSCTASGFPFSNAWMSWVRQAPGKGLEWVCRITSKTDGGTTDYVAPVKGRFTCSRDDSKNTLYLQMNSLKTEDTAVYYCTTDQANAFDIWGQGTMVTVSS
notes: Cys49/Cys69 (Kabat) mutant of HVHP414; VH single-domain antibody; tag not specified
B17: HVHP428S (antibody, V domains shown)
VH: QLQLQESGGGLVQPGGSLRLSCAASGFTFSSYAMSWFRQAPGKGLEWVCFIRSKAYGGTTEYAASVKGRFTCSRDDSKSIAYLQMNSLRAEDTAMYYCARRAKDGYNSPEDYWGQGTLVTVSS
notes: Cys49/Cys69 (Kabat) mutant of HVHP428; VH single-domain antibody; tag not specified
B18: HVHM41S (antibody, V domains shown)
VH: QVQLVQSGGGLVQPGRSLRLSCAASGFAFSSYAMSWVRQAPGKGLEWVCAISGGGDHTYYADSVKGRFTCSRDNSKNTLYLQMNSLRAEDTAVYYCAKEGMVRGVSSAPFDYWGQGTLVTVSS
notes: Cys49/Cys69 (Kabat) mutant of HVHM41; VH single-domain antibody; tag not specified
B19: HVHP426S (antibody, V domains shown)
VH: QVQLVQSGGGVVQPGRSLRLSCAASGFIVDGYAMHWVRQAPGQGLEWVCVTNNGGSTSYADSVKGRFTCSRDNSKNTVYLQMNSLRAEDTAVYYCARQSITGPTGAFDIWGQGTMVTVSS
notes: Cys49/Cys69 (Kabat) mutant of HVHP426; VH single-domain antibody; tag not specified
B20: HVHP420S (antibody, V domains shown)
VH: QVQLVESGGGLVKPGGSLRLSCAASGFTFSNAWMTWVRQAPGKGLEWVCRIKTKTDGGTTDYAAPVKGRFTCSRDDSKNTLYLQMNSLKTEDTAVYYCTTDRDHSSGSWGQGTLVTVSS
notes: Cys49/Cys69 (Kabat) mutant of HVHP420; VH single-domain antibody; tag not specified
B21: HVHAm431 (antibody, V domains shown)
VH: QVQLVESGGGLIKPGGSLRLSCAASGYTVSSECMGWVRQAPGKGLEWVSAISSSGGSTYYADSVKGRFTISRDNSKNTVYLQMNSLRAEDTAVYYCVRDSKNCHDKDCTRPYCSWGQGTMVTVSS
notes: as for B14
B22: HVHAm431S (antibody, V domains shown)
VH: B21 VH with S49C, G55S, I70C
notes: Cys49/Cys69 (Kabat) mutant of HVHAm431; VH single-domain antibody; tag not specified
B23: HVHP429S (antibody, V domains shown)
VH: EVQLVESGGTLVQPGGSLRLSCAASGFTFINYAMSWVRQAPDKGLDWVCTISNNGGATYYADSVKGRFTCSRDNSNNTLYLQMNSLRPDDTAVYYCAKGPINTGRYGDWGQGTLVTVSS
notes: Cys49/Cys69 (Kabat) mutant of HVHP429; VH single-domain antibody; tag not specified
B24: HVHP419S (antibody, V domains shown)
VH: QLQLQESGGGLVQPGGSLRLSCAASGFTFSSYAMSWVRQAPGKGLEWVCAISGSGGSTYYADSVKGRFTCSRDNSKNSLYLQMNSLGAEDTAVYYCARSWSGSSYGGDLDSWGQGTLVTVSS
notes: Cys49/Cys69 (Kabat) mutant of HVHP419; VH single-domain antibody; tag not specified
B25: HVHP421S (antibody, V domains shown)
VH: QLQLQESGGGVVQPGRSLRLSCAASGFTFSSYAMSWVRQAPGKGLEWVCAISGSGGSTYYADSVKGRFTCSRDNSKNTLYLQMNSLRAEDTAVYYCAKDGKGGSSGYDHPDYWGQGTLVTVSS
notes: Cys49/Cys69 (Kabat) mutant of HVHP421; VH single-domain antibody; tag not specified
B26: HVHP430S (antibody, V domains shown)
VH: QVQLVESGGGLIKPGGSLRLSCAASGFTFSNYAMSWVRQAPGKGLEWVCAISSSGGSTYYADSVKGRFTCSRDNSKNTVYLQMNSLRAEDTAVYYCVREEYRCSGTSCPGAFDIWGQGTMVTVSS
notes: Cys49/Cys69 (Kabat) mutant of HVHP430; VH single-domain antibody; tag not specified
B27: HVHPC235 (antibody, V domains shown)
VH: B2 VH with C49S, C70I, E89D
notes: Human VH single-domain antibody (wild-type), tested alone; tag not specified; also called HVHAmC235; HVHC235
B28: HVHP413S (antibody, V domains shown)
VH: QVQLVQSGGGLVKPGGSLRLSCAASGFTFSDYYMSWVRQAPGKGLEWVCFIYSGGSTYYADSVKGRFTCSRDNSKNTLYLQMNSLRAEDTAVYYCARESRVGGGAFDIWGQGTMVTVSS
notes: Cys49/Cys69 (Kabat) mutant of HVHP413; VH single-domain antibody; tag not specified

Biological target: T1, protein A (UniProt P38507 37-477)
T1 construct: Bought (Pierce); immobilized on CM5 chip by amine coupling; also called recombinant protein A
Experiment: SPR, KD of the mutant against KD of the wild-type VH on protein A

| Binder | fold reduction in protein A binding (increase in KD) against wild-type HVHM81 [fold] | fold reduction in protein A binding (increase in KD) against wild-type HVHPC235 [fold] |
| --- | --- | --- |
| B1 | 1.6 | – |
| B2 | – | 10 |

Biological target: T2, human lysozyme (human, UniProt P61626 19-148)
T2 construct: Bought; passed through Superdex 75 before SPR
T2 sequence (looked up): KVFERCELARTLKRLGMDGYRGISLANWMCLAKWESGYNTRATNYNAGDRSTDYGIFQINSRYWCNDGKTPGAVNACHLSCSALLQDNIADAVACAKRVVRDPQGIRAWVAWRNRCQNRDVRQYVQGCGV
Experiment: SPR (Biacore 3000), human lysozyme over immobilized VL
Protocol: The affinities (KDs) of the anti-human lysozyme VLs to their antigen, human lysozyme, was also determined. The binding of human lysozyme to immobilized anti-human lysozyme VL binders was determined by surface plasmon resonance (SPR) using BIACORE 3000 (GE Healthcare). […] Immobilizations were carried out at concentrations of 10 μg/mL in 10 mM acetate at pH 4.5 using the amine coupling kit supplied by the manufacturer. Human lysozyme was passed through a Superdex 75 column (GE Healthcare) in HBS-EP buffer (10 mM HEPES, pH 7.4, 150 mM NaCl, 3 mM EDTA and 0.005% P20 surfactant) with flow rate of 0.5 mL/min to eliminate any possible aggregates prior to Biacore analysis. For the binding studies, analyses were carried out at 25° C. in 10 mM HEPES, pH 7.4 containing 150 mM NaCl, 3 mM EDTA and 0.005% surfactant P20. The flow rates used were 20 μL/min. For regeneration the surfaces were washed for 15 min with the running buffer. Data were analyzed with BIAevaluation 4.1 software. From the SPR profiles (FIG. 15), it can be seen that the anti-human lysozyme VLs indeed bind to their target antigen, lysozyme, confirming the binding results obtained by phage ELISA.

| Binder | Kd [nM] |
| --- | --- |
| B3 | > 73000 |
| B4 | 50 |
| B5 | 200 |
| B6 | 60 |
| B7 | 6100 |
| B8 | 200 |
| B9 | 2600 |
| B10 | 6400 |

Biological target: T1, protein A
Experiment: SPR (Biacore 3000), VH over immobilized protein A
Protocol: Immobilizations were carried out at 50 μg/mL in 10 mM acetate buffer, pH 4.5, using the amine coupling kit supplied by the manufacturer (GE Healthcare). All measurements were carried out at 25° C. in HBS-EP buffer at a flow rate of 50 μL/min. Surfaces were regenerated by washing with the running buffer.

| Binder | Kd [nM] |
| --- | --- |
| B11 | 3000 |
| B12 | 10000 |
| B13 | 1200 |
| B1 | 2100 |
| B14 | 1600 |
| B15 | 4000 |
| B16 | 1800 |
| B17 | 1600 |
| B18 | 1500 |
| B19 | 3400 |
| B20 | 2200 |
| B21 | 4000 |
| B22 | 8000 |
| B23 | 5500 |
| B24 | 4800 |
| B25 | 2800 |
| B26 | 7700 |
| B27 | 300 |
| B2 | 3000 |
| B28 | 1500 |

Biological target: T1, protein A
Experiment: SPR (Biacore 3000), VH over immobilized protein A; value in parentheses obtained with higher concentration of monomer (footnote d)
Protocol: For mutant VHs (HVHP44S, HVHB82S, HVHP421S, HVHP419S, HVHP430S, HVHP429S, HVHM81S, HVHP428S, HVHP420S, HVHM41S, HVHP423S, HVHP413S, HVHP426S, and HVHP414S), approximately 1,170 RUs and 1,240 RUs of recombinant protein A and ovalbumin (reference protein), respectively, were immobilized on research grade sensor chip CMS. Immobilizations were carried out at 50 μg/mL in 10 mM acetate buffer (pH 4.5 for both protein A and ovalbumin) using the amine coupling kit supplied by the manufacturer. All measurements were carried out at 25° C. in HBS-EP buffer at a flow rate of 20 μL/min or 40 μL/min for HVHB82S, HVHP421S, HVHP429S, HVHM41S, HVHM81S, HVHP423S, HVHP413S, HVHP426S, and HVHP414S or HVHP44S, HVHP419S, HVHP430S, HVHP428S, and HVHP420S, respectively. The protein A binding property of the wild-type counterparts were determined previously (To et al 2005).

| Binder | Kd [nM] |
| --- | --- |
| B18 | 1800 |
| B23 | 3400 |
| B24 | 3200 |
